These results are taken from article PMC10438457 (Science Advances, 2023).

Sequences and labels used below:
T1: MBP-UFL1 (UniProt O94874 1-794)
T1 sequence: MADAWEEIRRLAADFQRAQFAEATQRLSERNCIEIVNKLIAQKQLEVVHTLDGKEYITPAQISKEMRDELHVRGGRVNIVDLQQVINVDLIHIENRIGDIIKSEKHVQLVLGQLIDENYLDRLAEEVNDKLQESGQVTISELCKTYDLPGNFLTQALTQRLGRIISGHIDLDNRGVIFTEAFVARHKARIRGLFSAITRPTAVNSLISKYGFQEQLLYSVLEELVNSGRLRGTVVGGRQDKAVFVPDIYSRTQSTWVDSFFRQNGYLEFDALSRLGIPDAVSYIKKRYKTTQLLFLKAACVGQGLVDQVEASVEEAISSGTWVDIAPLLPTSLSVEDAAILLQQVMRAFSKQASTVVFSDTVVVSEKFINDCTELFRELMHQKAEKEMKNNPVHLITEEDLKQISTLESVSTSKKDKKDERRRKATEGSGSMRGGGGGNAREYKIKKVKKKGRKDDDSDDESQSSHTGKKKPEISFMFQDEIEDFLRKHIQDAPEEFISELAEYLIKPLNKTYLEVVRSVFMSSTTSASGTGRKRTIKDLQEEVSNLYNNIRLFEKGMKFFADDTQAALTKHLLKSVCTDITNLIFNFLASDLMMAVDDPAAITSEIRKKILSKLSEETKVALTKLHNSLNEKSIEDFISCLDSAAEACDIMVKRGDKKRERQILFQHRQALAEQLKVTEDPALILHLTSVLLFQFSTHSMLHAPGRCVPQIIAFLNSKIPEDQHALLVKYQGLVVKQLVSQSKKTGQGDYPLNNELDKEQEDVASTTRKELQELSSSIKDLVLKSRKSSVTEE

B1: GST-CDK5RAP3 (natural protein)
chain: MEDHQHVPIDIQTSKLLDWLVDRRHCSLKWQSLVLTIREKINAAIQDMPESEEIAQLLSGSYIHYFHCLRILDLLKGTEASTKNIFGRYSSQRMKDWQEIIALYEKDNTYLVELSSLLVRNVNYEIPSLKKQIAKCQQLQQEYSRKEEECQAGAAEMREQFYHSCKQYGITGENVRGELLALVKDLPSQLAEIGAAAQQSLGEAIDVYQASVGFVCESPTEQVLPMLRFVQKRGNSTVYEWRTGTEPSVVERPHLEELPEQVAEDAIDWGDFGVEAVSEGTDSGISAEAAGIDWGIFPESDSKDPGGDGIDWGDDAVALQITVLEAGTQAPEGVARGPDALTLLEYTETRNQFLDELMELEIFLAQRAVELSEEADVLSVSQFQLAPAILQGQTKEKMVTMVSVLEDLIGKLTSLQLQHLFMILASPRYVDRVTEFLQQKLKQSQLLALKKELMVQKQQEALEEQAALEPKLDLLLEKTKELQKLIEADISKRYSGRPVNLMGTSL
B2: UFC1 (recombinant, GST tag cleaved) (enzyme)
chain: MADEATRRVVSEIPVLKTNAGPRDRELWVQRLKEEYQSLIRYVENNKNADNDWFRLESNKEGTRWFGKCWYIHDLLKYEFDIEFDIPITYPTTAPEIAVPELDGKTAKMYRGGKICLTDHFKPLWARNVPKFGLAHLMALGLGPWLAVEIPDLIQKGVIQHKEKCNQ

For test [1], the target named is T1, MBP-UFL1. As to the kind of experiment: pull-down.
Test [2] deals with B1. Description: pull-down.
The target in test [3] is B2. Description: ITC. A general note: In ITC the heat of successive injections is recorded.

Take B1: the binding result in test [1] is listed as “binds”.

With B2, the binding result in test [2] is “binds”.

By Kd is commonly meant the constant that tells how readily two partners part at equilibrium. Turning to MADAWEEIRRLAADFQRAQFA [UFL1 (1-21), UFC1-binding sequence peptide], the dissociation constant (Kd) in test [3] came out at 410 nM.
